Measured values taken from the supplement of paper PMC10567573.

B1: SNAP91 (parent)
chain: FSTDAFSSPPQGASPVPESSLTAD

Variants of: B1
Experiment: protein stability index of a GFP-peptide fusion (GPS, HEK-293T) (PSI 1-6); higher = more stable
Conditions: c terminus: a fixed tail appended
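Note: lentivirally expressed fusions sorted by FACS into six bins by GFP to DsRed ratio, PSI derived from sequencing read proportions per bin multiplied by bin number.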

Row | Variant | protein stability index
1 | FSTDAFSSPPQRASPVPESSLTAD [G12R] | 3.11
2 | FSTDAFSSPPQNASPVPESSLTAD [G12N] | 3.08
3 | FSTDAFSSPPQEASPVPESSLTAD [G12E] | 3.58
4 | FSTDAFSSPPQCASPVPESSLTAD [G12C] | 2.62
5 | FSTDAFSSPPQAASPVPESSLTAD [G12A] | 3.39
6 | FSTDAFSSPPQSASPVPESSLTAD [G12S] | 2.79
7 | FSTDAFSSPPQTASPVPESSLTAD [G12T] | 3.5
8 | FSTDAFSSPPQFASPVPESSLTAD [G12F] | 2.6
9 | FSTDAFSSPPQHASPVPESSLTAD [G12H] | 2.63
10 | FSTDAFSSPPQKASPVPESSLTAD [G12K] | 2.73
11 | FSTDAFSSPPQPASPVPESSLTAD [G12P] | 2.93
12 | FSTDAFSSPPQWASPVPESSLTAD [G12W] | 2.32
13 | FSTDAFSSPPQYASPVPESSLTAD [G12Y] | 2.44
14 | FSTDAFSSPPQLASPVPESSLTAD [G12L] | 2.75
15 | FSTDAFSSPPQQASPVPESSLTAD [G12Q] | 3.35
16 | FSTDAFSSPPQMASPVPESSLTAD [G12M] | 2.58
17 | FSTDAFSSPPQVASPVPESSLTAD [G12V] | 2.92
18 | FSTDAFSSPPQIASPVPESSLTAD [G12I] | 2.68
19 | FSTDAFSSPPQDASPVPESSLTAD [G12D] | 3.52
20 | FSTDAFSSPAQGASPVPESSLTAD [P10A] | 3.09
21 | FSTDAFSSPRQGASPVPESSLTAD [P10R] | 2.55
22 | FSTDAFSSPHQGASPVPESSLTAD [P10H] | 2.29
23 | FSTDAFSSPDQGASPVPESSLTAD [P10D] | 3.61
24 | FSTDAFSSPFQGASPVPESSLTAD [P10F] | 2.28

Row | Variant | protein stability index
25 | FSTDAFSSPCQGASPVPESSLTAD [P10C] | 2.8
26 | FSTDAFSSPWQGASPVPESSLTAD [P10W] | 1.72
27 | FSTDAFSSPEQGASPVPESSLTAD [P10E] | 3.23
28 | FSTDAFSSPGQGASPVPESSLTAD [P10G] | 2.69
29 | FSTDAFSSPTQGASPVPESSLTAD [P10T] | 2.73
30 | FSTDAFSSPMQGASPVPESSLTAD [P10M] | 2.29
31 | FSTDAFSSPSQGASPVPESSLTAD [P10S] | 2.71
32 | FSTDAFSSPQQGASPVPESSLTAD [P10Q] | 3.24
33 | FSTDAFSSPVQGASPVPESSLTAD [P10V] | 2.73
34 | FSTDAFSSPNQGASPVPESSLTAD [P10N] | 2.64
35 | FSTDAFSSPIQGASPVPESSLTAD [P10I] | 2.42
36 | FSTDAFSSPLQGASPVPESSLTAD [P10L] | 3.38
37 | FSTDAFSSPYQGASPVPESSLTAD [P10Y] | 2.18
38 | FSTDAFSSPKQGASPVPESSLTAD [P10K] | 3.16
39 | FSTDAFFSPPQGASPVPESSLTAD [S7F] | 1.99
40 | FSTDAFRSPPQGASPVPESSLTAD [S7R] | 1.62
41 | FSTDAFTSPPQGASPVPESSLTAD [S7T] | 3.33
42 | FSTDAFNSPPQGASPVPESSLTAD [S7N] | 4.22
43 | FSTDAFVSPPQGASPVPESSLTAD [S7V] | 2.32
44 | FSTDAFMSPPQGASPVPESSLTAD [S7M] | 2.84
45 | FSTDAFHSPPQGASPVPESSLTAD [S7H] | 2.51
46 | FSTDAFKSPPQGASPVPESSLTAD [S7K] | 2.96
47 | FSTDAFPSPPQGASPVPESSLTAD [S7P] | 3.56
48 | FSTDAFDSPPQGASPVPESSLTAD [S7D] | 5.47

Row | Variant | protein stability index
49 | FSTDAFQSPPQGASPVPESSLTAD [S7Q] | 3.77
50 | FSTDAFWSPPQGASPVPESSLTAD [S7W] | 3.15
51 | FSTDAFCSPPQGASPVPESSLTAD [S7C] | 2.18
52 | FSTDAFESPPQGASPVPESSLTAD [S7E] | 5.35
53 | FSTDAFISPPQGASPVPESSLTAD [S7I] | 2.66
54 | FSTDAFLSPPQGASPVPESSLTAD [S7L] | 2.96
55 | FSTDAFYSPPQGASPVPESSLTAD [S7Y] | 2.9
56 | FSTDAFASPPQGASPVPESSLTAD [S7A] | 2.98
57 | FSTDAFGSPPQGASPVPESSLTAD [S7G] | 3.89
58 | FSTDAFSSPPQGADPVPESSLTAD [S14D] | 3.62
59 | FSTDAFSSPPQGAVPVPESSLTAD [S14V] | 2.63
60 | FSTDAFSSPPQGATPVPESSLTAD [S14T] | 3.29
61 | FSTDAFSSPPQGAYPVPESSLTAD [S14Y] | 2.84
62 | FSTDAFSSPPQGAEPVPESSLTAD [S14E] | 3.27
63 | FSTDAFSSPPQGAAPVPESSLTAD [S14A] | 3.57
64 | FSTDAFSSPPQGANPVPESSLTAD [S14N] | 3
65 | FSTDAFSSPPQGAQPVPESSLTAD [S14Q] | 2.75
66 | FSTDAFSSPPQGARPVPESSLTAD [S14R] | 2.88
67 | FSTDAFSSPPQGALPVPESSLTAD [S14L] | 3.22
68 | FSTDAFSSPPQGAGPVPESSLTAD [S14G] | 3.3
69 | FSTDAFSSPPQGAKPVPESSLTAD [S14K] | 2.9
70 | FSTDAFSSPPQGAMPVPESSLTAD [S14M] | 2.95
71 | FSTDAFSSPPQGAFPVPESSLTAD [S14F] | 2.54
72 | FSTDAFSSPPQGAWPVPESSLTAD [S14W] | 2.69

Row | Variant | protein stability index
73 | FSTDAFSSPPQGAHPVPESSLTAD [S14H] | 3.06
74 | FSTDAFSSPPQGACPVPESSLTAD [S14C] | 3
75 | FSTDAFSSPPQGAIPVPESSLTAD [S14I] | 2.89
76 | FSTDAFSSPPQGHSPVPESSLTAD [A13H] | 3.16
77 | FSTDAFSSPPQGDSPVPESSLTAD [A13D] | 3.45
78 | FSTDAFSSPPQGKSPVPESSLTAD [A13K] | 2.47
79 | FSTDAFSSPPQGWSPVPESSLTAD [A13W] | 2.72
80 | FSTDAFSSPPQGISPVPESSLTAD [A13I] | 2.52
81 | FSTDAFSSPPQGGSPVPESSLTAD [A13G] | 2.99
82 | FSTDAFSSPPQGNSPVPESSLTAD [A13N] | 3.51
83 | FSTDAFSSPPQGSSPVPESSLTAD [A13S] | 3.54
84 | FSTDAFSSPPQGESPVPESSLTAD [A13E] | 3.22
85 | FSTDAFSSPPQGLSPVPESSLTAD [A13L] | 2.82
86 | FSTDAFSSPPQGYSPVPESSLTAD [A13Y] | 2.85
87 | FSTDAFSSPPQGTSPVPESSLTAD [A13T] | 3.47
88 | FSTDAFSSPPQGFSPVPESSLTAD [A13F] | 2.54
89 | FSTDAFSSPPQGQSPVPESSLTAD [A13Q] | 3.11
90 | FSTDAFSSPPQGPSPVPESSLTAD [A13P] | 2.72
91 | FSTDAFSSPPQGVSPVPESSLTAD [A13V] | 2.75
92 | FSTDAFSSPPQGRSPVPESSLTAD [A13R] | 2.77
93 | FSTDAFSSPPQGMSPVPESSLTAD [A13M] | 2.93
94 | FSTDAFSSPPQGCSPVPESSLTAD [A13C] | 2.69
